Target: Patched

Mean luminescence intensity (Gli-luciferase reporter, NIH3T3 cells) (luminescence intensity): 6460
Substance: Recombinant mouse Sonic HedgeHog (mShh) (from UniProt Q62226) (ligand)
